Measured values taken from the supplement of paper PMC12042874.
± gives the uncertainty stated by the source.

Test: amyloid nucleation score (Sup35N fusion, yeast selection) (log enrichment); library NNK2; higher = more nucleation; inactive = no reads after selection
How it was run: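 In psi-negative yeast, Sup35N fusions carrying peptides of 20 random codons were induced with 100 μM copper sulfate for 24 hours. The cells then grew 7 days at 30°C on medium lacking adenine and uracil, and plasmid inserts from input and output were Illumina-sequenced, excluding sequences with under 100 input reads. Nucleation score is the DiMSum log enrichment of output over input reads, centred on the mode score of non-aggregating sequences.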

Substance | amyloid nucleation score
RPYNPFPLCILRWRPELL | inactive
RRALIWIAIHECIRTTPHLL | -0.434 ± 0.76
RRFVCRCFRYTHECVLGCFG | 1.52 ± 0.33
RRGENIDESVRVVEWGVDVM | 0.64 ± 0.47
RRGTQVFCCDYWSARGSWT | 8.749 ± 0.062
RRKHLWRQRLWTR | -0.425 ± 0.63
RRPCLS | -1.09 ± 0.63
RRPIGDW | 0.169 ± 0.36
RRRRSGLCRAYVNVLNARTR | 0.79 ± 0.41
RSAILEEDFDCHMYWGL | 0.916 ± 0.31
RSCFPCSCK | 0.472 ± 0.31
RSCFPMIIALVRFDVFGDCY | -0.339 ± 0.31
RSDSVYSIGCSNENRQSGRA | 1.21 ± 0.2
RSFEVKLFARSLKHIPDLTP | 1.02 ± 0.35
RSGCQMKCITYRGRAGGHLV | 0.882 ± 0.31
RSICVYTIRYLFSH | -0.513 ± 0.3
RSIRCVYKF | -0.465 ± 0.29
RSKDYVFFCFSCTNWLC | 8 ± 0.082
RSLDQSIVNRVVVYFSGWCV | 3.62 ± 0.073
RSLGVSAL | inactive
RSPCIWLWFLNAACHKCVLM | 0.752 ± 0.43
RSPMWLAGLMNIYSP | 2.87 ± 0.084
RSPRHQNQDPRLKGRNARSP | 2.49 ± 0.086
RSRVLILCDEGRNCVL | -0.533 ± 0.42
RSSADAPVY | -0.864 ± 1.1
RSTLPGRRFFIGNILYN | -0.578 ± 0.78

Substance | amyloid nucleation score
RSWIGERIIYSSMRYQCAYL | -1.42 ± 0.54
RTCTFVCRGM | 2.86 ± 0.1
RTGLTRYLLYFPV | 0.326 ± 0.22
RTGRPSHDFRYGKQRFMVRP | 0.736 ± 0.74
RTIVCF | -0.699 ± 1
RTLFSRFYRRSMFNLSVKKK | inactive
RTLLSSCKIATSLWHMCYPQ | -0.381 ± 1.1
RTLYSGWVGHVSKEARNLFK | 6.12 ± 0.054
RTVIQQVPAPLARAGVRWGW | 3.17 ± 0.097
RTVLATYMTPRSTPKSDYPR | -0.734 ± 0.48
RTVLFAGCAVSNEMFCEKLV | 3.68 ± 0.077
RTVLGGWMANWASHNILVQC | 0.316 ± 0.39
RTYSMGGIR | -0.849 ± 1.1
RVDGDYSSARRGGLISKWAF | 0.804 ± 0.5
RVEEWASFTTVIIMRMLNPG | 0.94 ± 0.6
RVFFTVCGMHTGSSKKLAGL | 1.23 ± 0.21
RVFMEH | -0.047 ± 1.1
RVFRCYRIIYMVMI | 0.204 ± 0.19
RVGDEFVGCRWVSRIANSHS | 2.23 ± 0.14
RVGFNNRNVVD | 0.266 ± 0.56
RVGQSIYMPPLRNGRAGVKW | 1.21 ± 0.27
RVGRSSKLWGFREYTSRKFG | 0.28 ± 0.77
RVKEMWGVYVGQHGYTANAL | 0.842 ± 0.47
RVQDRYILNSVRQHHGAGQR | -0.14 ± 1.1
RVQVQLLISVYFFLYLPHSI | -1.58 ± 0.41
RVSESLPSTD | -0.219 ± 0.47

Substance | amyloid nucleation score
RVSQHGEVPSTCFSK | 1.39 ± 0.38
RVSYDF | 0.43 ± 0.65
RVTSEIWGCGGGFREECIKE | 0.143 ± 0.5
RVVGPFFMVFVLTDMGFWVT | inactive
RVWDNSVLGWQQGFSTVERV | 0.766 ± 0.3
RVYMRISFSLSLLIAMSNLI | -0.315 ± 0.64
RWRIARMITPNLPELLSLYR | 2.93 ± 0.059
RWTKGCDSNCIWF | -0.502 ± 0.25
RWVSGQTYVVLSIVR | 0.242 ± 0.28
RYALNYTIPEPYWT | -0.576 ± 0.55
RYDSMIHRSVGWPGSYNKGH | -0.287 ± 0.31
RYGFSVSITMIFYRGGFCRW | inactive
RYGVRSQCYGVTKRLFAITA | 0.951 ± 0.33
RYHWEVLK | 0.082 ± 1
RYRELVGVKCMV | 0.978 ± 0.74
RYRLISTTFGVAHSFEPPRL | 4.26 ± 0.059
RYRVRKCSLANWDEWTTIGC | 1.67 ± 0.19
RYVNVCYNSSAWGLFGTTHI | inactive
RYVQLIDHWSNGIVKVVGVL | 0.783 ± 0.56
RYVVCNGRNLELLDFMNSRS | -0.74 ± 1.1
RYWTSIGCGR | 0.589 ± 0.32
SACIILI | 1.65 ± 0.15
SADRECCQHEFGASPRLRVG | 4.907 ± 0.041
SAFIVNCNLINAQERDFKSD | 6.682 ± 0.034
SAGHSKGLQDVAPPRIFMVS | inactive
SAGVEAREMRTSYLGSSEVG | 1.28 ± 0.32

Substance | amyloid nucleation score
SAHLYALGNSRHFIYVPVEL | inactive
SALCNDVVRPMMVFSENCAK | 0.225 ± 0.31
SALNYSFFLL | -0.27 ± 1.1
SAMSCPTKSAELRKCSYHPS | 0.246 ± 0.27
SASWGLQSYNSRCGRLTNRF | 0.524 ± 0.81
SAWVTNIFDNKLCVAVTEFR | 4.04 ± 0.06
SCCCYMIGKGIPQM | 0.394 ± 0.3
SCCEGISSVNNLFMRRRGIE | 0.201 ± 0.53
SCDVTHGGLRQSKHGSGESG | 7.7 ± 0.083
SCFLNMTLILDLVITGMMPR | -0.251 ± 0.32
SCFSIFMLIPSSATAIFSQI | -1.27 ± 1
SCGVDCSVSGC | 0.903 ± 0.57
SCIDCLRLSLLSGCIHWVNY | 0.509 ± 0.8
SCLTDQDERPGLWELSCRYM | 1.1 ± 0.34
SCMSFVLKFPQTLSVWVCWG | 4.97 ± 0.072
SCNRRSSVVPWWWLTFRRWN | -1.16 ± 1.1
SCRDNIRGQRLGHHAGLWSR | 0.479 ± 0.2
SCRNCSQSVSLGGSSKPRQV | 0.455 ± 0.4
SCSISGMVVWDRMVKLSLSL | -0.317 ± 0.48
SCSVGRNKMWILVLVVVWGE | 0.035 ± 0.54
SCVCVMSYQLNVWRKHDSCI | 4.606 ± 0.035
SCVGTN | -0.062 ± 0.55
SCYRFSRSRS | -0.359 ± 0.49
SDARPYWIIYMSNQPYGIDS | inactive
SDEIECCKYFFGYL | 5.347 ± 0.047
SDERSGFRTSVRG | 0.479 ± 0.29

Substance | amyloid nucleation score
SDEVVVFRRDMSGCHEFVLV | 1.12 ± 0.27
SDFIPGKMCLNCLWWFVPTR | -0.496 ± 0.36
SDISNQLMFFGRWAPRVLVD | -0.35 ± 1.1
SDLVLKSLFDVVARRL | -0.072 ± 0.35
SDPHMHD | 0.521 ± 0.25
SDTSVRGLLLEVCRWSGWVA | 1.33 ± 0.35
SDVRVLNDQKSGVFC | 0.706 ± 0.15
SDYVYKFSVAWWVPVSSVVK | 0.701 ± 0.38
SEGLG | 3.53 ± 0.063
SEPKEVCLVIGGEEYKGVVS | 0.364 ± 0.37
SFCKCLVVALVDVWNRCLPW | 4.68 ± 0.051
SFCVALFSWSVYVTIRVHYR | -0.545 ± 0.79
SFCYLLSTISVTIALVKTRG | -0.271 ± 0.5
SFDCKVMVFCAMRYNLRIMS | -1 ± 0.5
SFDLAVTECIALCFRCYQVF | -1.04 ± 0.39
SFDVYVEARLMDSVTGLDRI | 0.437 ± 0.32
SFDWWASHRTIVY | -0.217 ± 0.42
SFEFVACVVMYMCCRTMFIL | -0.164 ± 0.24
SFFMEDQCTRPLVWEVRVFN | 0.049 ± 1.1
SFGCINTCFCMCSCFVREMD | 1.5 ± 0.14
SFGHATLYSFH | -0.058 ± 0.65
SFHFCWFRYNWCYFGLS | 0.058 ± 1
